Source: paper PMC4634331, “Single-molecule spectroscopy exposes hidden states in an enzymatic electron relay” (Nature Communications, 2015)

Substrate: OC(CS)C(O)CS
Experiment: oxygen consumption, Clark-type oxygen electrode
Format: biochemical, Trypanosoma brucei
Details: O2 as electron acceptor, air-saturated, 25 °C, 50 nM enzyme, Michaelis-Menten fit of data up to 1 mM DTT (turnover rises beyond the fit above 1 mM)

B1: TbQSOX (Trypanosoma brucei brucei TREU927) (protein)
chain: SVAQVATGSPRPGLFHLDSSVVDLSGDDFSRVHRVAPLCPWIVLFYNDGCGACRRYASTFSKFAGGLKVEHGKDALQIATAAAVNCASEVDLCRKYDINFVPRLFFFYPRDSCRSNEECGTSSLEHVAFENSHLEVDELESEVRRLVNKHMVVDDSLKERCIDMHFKLYTSKEELVKRSVSSTDESGRFVETTELYATDIAGAFFSAMHYDVSLVGTEPRERLTALEDFVLLVKDSLPSIGADGVVSALESITAERPFTVASWQDAVVKSGIPFDGSPRNVRWRTCRGSSPQYRGFPCGMWLLLHALTVNTPADRNVLEVIQNYIRYFFSCKECRDHFIQFNFSPNEDPVLQLWRAHNNVNARLANVKDGADPLVPKRQFPTLEACTECYDGAGNFIEAHVTGFLKQRYLWDPKAVGLMESNDDLNEVDPASKDANVGRNVESSGKGKGDGGARGNSKEVRSDHAG
Work on B1 yielded a Km of 65 ± 10 µM.
